The target in assay [1] is HLA-DR on LG-2 cells (human). Description: cell-based or functional assay.
For assay [2], the target named is HLA-DR as expressed on the tumor cell line. Briefly: cell-based or functional assay.

The results in this text go back to patent publication US20070086998A1.

Sequence of L243 (antibody) (VH): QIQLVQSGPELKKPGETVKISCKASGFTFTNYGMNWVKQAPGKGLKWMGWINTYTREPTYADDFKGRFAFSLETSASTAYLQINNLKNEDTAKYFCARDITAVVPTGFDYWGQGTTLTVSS
Sequence of L243 (antibody) (VL): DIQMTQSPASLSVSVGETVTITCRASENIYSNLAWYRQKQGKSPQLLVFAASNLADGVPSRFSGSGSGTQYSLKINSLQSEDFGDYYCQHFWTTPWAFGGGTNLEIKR

Regarding L243 (antibody), the % Killing by mAb; LG-2 (DR 1,1); 200 nM, 4 h in assay [1] is 79%. In assay [2], the % Killing by mAb; ARH-77 (DR 12); 200 nM, 4 h amounted to 88%; the % Killing by mAb; BJAB (DR 12,13); 200 nM, 4 h was determined as 53%; the % Killing by mAb; BONNA-12; 200 nM, 4 h turned out to be 92%; the % Killing by mAb; DOHH-2 (DR 1,2); 200 nM, 4 h is 29%. In assay [2], this substance yielded a % Killing by mAb; EOL-1; 200 nM, 4 h of 22%; a % Killing by mAb; GRANTA-519 (DR 2,11); 200 nM, 4 h of 83%; a % Killing by mAb; HC-1; 200 nM, 4 h of 88%; a % Killing by mAb; HD-MY-Z; 200 nM, 4 h of 35%. Besides, in assay [2], the % Killing by mAb; HDLM-2; 200 nM, 4 h was 77%; the % Killing by mAb; KARPAS-299 (DR 1,2); 200 nM, 4 h came out at 78%; the % Killing by mAb; KARPAS-422 (DR 2,4); 200 nM, 4 h stood at 25%; the % Killing by mAb; KM-H2; 200 nM, 4 h is 81%. In assay [2], this substance showed a % Killing by mAb; L1236; 200 nM, 4 h of 52%; a % Killing by mAb; L-363; 200 nM, 4 h of 6%; a % Killing by mAb; L-428 (DR 12); 200 nM, 4 h of 82%; a % Killing by mAb; LP-1; 200 nM, 4 h of 12%. In assay [2], the % Killing by mAb; MHH-CALL-4 (DR 1,2); 200 nM, 4 h came to 35%; the % Killing by mAb; MHH-PREB-1; 200 nM, 4 h turned out to be 3%; the % Killing by mAb; MN-60 (DR 10,13); 200 nM, 4 h stood at 46%; the % Killing by mAb; NALM-1 (DR 1,4); 200 nM, 4 h worked out at 44%. In assay [2], this substance registered a % Killing by mAb; RAJI (DR 10,17); 200 nM, 4 h of 69%; a % Killing by mAb; RPMI-8226; 200 nM, 4 h of 6%; a % Killing by mAb; SR-786 (DR 1,2); 200 nM, 4 h of 3%.
